Source: US20230303685A1 (ELECTRA THERAPEUTICS, published 2023)
Positions count from the first letter of the chain named. Values belong to the binder of their own block, whether it stands above or below them.

How the values were obtained:
[1] = target: T1, human SIRPα V1 extracellular domain, monomeric (human, UniProt P78324 31-373); assay: SPR (Biacore); antibody captured by anti-IgG on chip, monomeric SIRPα extracellular domain as analyte, 1:1 model
T1 construct: also called hSIRPα V1
Experimental: (§1) Selected antibodies were tested for their affinities to two hSIRPα variants (V1 and V2), and to cynomolgus monkey (herein referred to as “cyno”) SIRPα. The affinities of these SIRP antibodies were determined using surface plasmon resonance. The SIRP antibodies were flowed onto a chip and captured by an anti-mouse IgG or an anti-human IgG covalently coupled to the surface of the chip. A three-point titration of the extracellular binding domain of hSIRPα was performed per the manufacturer's recommended protocols.

[2] = target: T2, human SIRPα V2 extracellular domain, monomeric (human, UniProt P78324 31-370); assay: as above
T2 construct: also called hSIRPα V2
Experimental: as §1

[3] = target: T3, cynomolgus monkey SIRPα extracellular domain, monomeric (cynomolgus monkey, UniProt A0A2K5VYQ9 31-372); assay: as above
T3 construct: extracellular domain; also called Cyno SIRPα
Experimental: as §1

Human SIRPγ [4] = target: T4, Human SIRPγ; assay: ELISA, extracellular domain coated at 1 µg/mL, purified antibody titrated, anti-human IgG, chemiluminescence
T4 construct: also called human SIRPγ extracellular domain, plate-coated
T4 chain: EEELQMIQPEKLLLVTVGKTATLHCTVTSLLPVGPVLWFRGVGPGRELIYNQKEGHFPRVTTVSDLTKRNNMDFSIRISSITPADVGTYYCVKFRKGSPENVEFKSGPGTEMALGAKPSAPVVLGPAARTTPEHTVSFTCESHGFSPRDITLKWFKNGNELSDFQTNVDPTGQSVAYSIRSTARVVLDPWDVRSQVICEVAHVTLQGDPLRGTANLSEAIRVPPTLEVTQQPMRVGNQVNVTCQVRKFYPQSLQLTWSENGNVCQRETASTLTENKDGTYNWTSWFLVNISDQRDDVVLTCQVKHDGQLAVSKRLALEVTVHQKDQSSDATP
Experimental: (§2) Select SIRP antibodies were purified by Protein G from hybridoma supernatants and analyzed in a titration via ELISA. Briefly, 1 μg/mL of extracellular domain SIRPα was coated onto high protein-binding plates and blocked. Purified antibodies were added in a titration to the coated plates. The antibodies were detected by an anti-rat IgG antibody and a chemiluminescent substrate.
FIGS. 3A-3C show binding curves of SIRP antibodies and two isotype controls with human Fc to human SIRPα V1, human SIRPβ1, human SIRPγ and cynomolgus monkey SIRPα by ELISA. […] Isotype control 1 was an unrelated human IgG1 antibody with irrelevant CDRs. Isotype control 2 was the same as isotype control 1 but contained the same amino acid substitutions in the Fc region as some of the selected SIRP antibodies for increased FcγR binding (referring to Table 11). DNA was transiently transfected into CHO cells for 7 days. Antibodies were purified by Protein A from cell supernatants and analyzed in a titration via ELISA as previously described in FIGS. 2A-2B using an anti-human IgG antibody as the detection antibody.

[5] = target: T5, human SIRPα V1-His monomer (human, UniProt P78324 31-373, limits assumed); assay: BLI (Octet); antibody on anti-mouse IgG capture tip, SIRP-His monomer at 100, 33.3, 11.1 nM, 1:1 fit, mean KD
T5 construct: 'SIRP-His monomer protein' of the Octet assay; also called SIRP-His; not shown: His tag
Experimental: (§3) Select SIRP antibodies were tested for their affinities to human SIRPα, SIRPβ1, and SIRPγ using a biolayer interferometry (BLI) Octet system (Pall ForteBio). Each SIRP antibody with rat or mouse Fc was immobilized on a biosensor tip by an anti-mouse IgG capture (AMC). Antibodies with human Fc were digested with gingipain K enzyme to yield monomeric F(ab′), biotinylated, then coated onto streptavidin biosensors. […] The biosensors were then exposed to wash buffer to measure off-rate kinetics. The resulting kinetic data were analyzed and fitted using a 1:1 binding model with kₒₙ and kdis fitted separately at each SIRP-His protein concentration. KD affinities were calculated as kdis to kₒₙ ratio at each concentration of SIRP-His and averaged.

human SIRPβ1-His monomer = target: T6, human SIRPβ1-His monomer (human, UniProt O00241 30-371); assay: as above
T6 construct: 'SIRP-His monomer protein' of the Octet assay; also called SIRP-His; not shown: His tag
Experimental: as §3

human SIRPγ-His monomer = target: T7, human SIRPγ-His monomer (human); assay: as above
T7 construct: 'SIRP-His monomer protein' of the Octet assay; also called SIRP-His; not shown: His tag
Experimental: as §3

Human SIRPβ1/DAP12 CHO = target: T8, Human SIRPβ1/DAP12 CHO; assay: flow cytometry, stably transfected CHO cells, antibody titrated, labelled anti-rat or anti-mouse IgG, MFI
T8 construct: also called human SIRPβ1 on CHO cells co-transfected with DAP12; copies: 1 + 2
Experimental: (§4) Selected antibodies were tested for binding to stably transfected human SIRPα, SIRPβ1 (co-transfected with DAP12), or SIRPγ Chinese hamster ovary (CHO) cells via flow cytometry. A titration of SIRP antibodies was added to the cells and detected using a fluorescently labelled secondary antibody. Graph depicts the median fluorescence intensity (MFI) at each concentration.

Human SIRPγ CHO = target: T9, Human SIRPγ CHO; assay: as above
T9 construct: also called human SIRPγ on CHO cells
T9 chain: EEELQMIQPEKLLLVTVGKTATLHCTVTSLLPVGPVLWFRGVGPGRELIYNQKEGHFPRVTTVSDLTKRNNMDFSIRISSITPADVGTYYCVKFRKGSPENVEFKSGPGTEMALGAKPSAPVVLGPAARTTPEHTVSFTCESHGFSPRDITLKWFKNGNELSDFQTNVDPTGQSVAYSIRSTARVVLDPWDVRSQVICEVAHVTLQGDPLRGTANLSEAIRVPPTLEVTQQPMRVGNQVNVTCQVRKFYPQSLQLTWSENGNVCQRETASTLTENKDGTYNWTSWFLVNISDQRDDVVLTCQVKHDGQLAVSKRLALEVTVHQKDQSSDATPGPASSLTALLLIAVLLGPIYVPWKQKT
Experimental: as §4

Cynomolgus Monkey SIRPγ = target: T10, Cynomolgus Monkey SIRPγ (Macaca fascicularis); assay: ELISA, extracellular domain coated at 2 µg/mL, purified antibody titrated, anti-rat or anti-mouse IgG, chemiluminescence
T10 construct: extracellular domain; also called cyno SIRPγ extracellular domain, plate-coated
Experimental: as §2, with “2” for “1”, “of each of the SIRPs” for “SIRPα”, “IgG or an anti-mouse IgG” for “IgG”

Human SIRPβ1 = target: T11, Human SIRPβ1; assay: as above
T11 construct: also called human SIRPβ1 extracellular domain, plate-coated
T11 chain: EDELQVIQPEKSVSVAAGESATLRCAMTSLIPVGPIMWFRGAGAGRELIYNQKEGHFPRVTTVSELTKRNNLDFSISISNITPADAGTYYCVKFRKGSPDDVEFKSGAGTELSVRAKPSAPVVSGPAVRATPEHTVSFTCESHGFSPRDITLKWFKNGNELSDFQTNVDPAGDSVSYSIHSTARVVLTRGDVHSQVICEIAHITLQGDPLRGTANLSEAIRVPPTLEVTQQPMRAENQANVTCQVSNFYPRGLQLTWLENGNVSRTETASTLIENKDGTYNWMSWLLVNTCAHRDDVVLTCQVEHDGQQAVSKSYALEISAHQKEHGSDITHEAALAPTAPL
Experimental: as §2, with “2” for “1”, “of each of the SIRPs” for “SIRPα”, “IgG or an anti-mouse IgG” for “IgG”

Human SIRPγ [6] = target: T4, Human SIRPγ; assay: as above
Experimental: as §2, with “2” for “1”, “of each of the SIRPs” for “SIRPα”, “IgG or an anti-mouse IgG” for “IgG”

[7] = target: T1, human SIRPα V1 extracellular domain, …; assay: as above
Experimental: as §2, with “2” for “1”, “of each of the SIRPs” for “SIRPα”, “IgG or an anti-mouse IgG” for “IgG”

[8] = target: T12, Human SIRPγ conjugated to an Fc region (human); assay: BLI blocking; 200 nM antibody pre-incubated with 20 nM SIRPγ-Fc, binding to immobilised CD47-His (competitor), % of response of SIRPγ-Fc alone
T12 construct: also called SIRPγ-Fc; SIRP-Fc; not shown: Fc region

T8 sequence (DAP12, as listed by the source limits assumed): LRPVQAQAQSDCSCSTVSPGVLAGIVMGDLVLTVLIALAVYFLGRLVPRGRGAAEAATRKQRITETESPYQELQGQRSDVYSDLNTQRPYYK

- Kd (human SIRPγ-His monomer): 38.7 nM
- binding result (Human SIRPγ CHO): binds
- EC50 (read off the curve) (Cynomolgus Monkey SIRPγ): ~0.09 µg/mL
- EC50 (read off the curve) (Human SIRPγ [6]): ~0.05 µg/mL
- SIRPγ-CD47 Response (%) [8]: 14.4%
B3: Antibody 14 (antibody, V domains shown)
VH: QVQLVESGGGVVQPGRSLRLSCVASGFIFSNYGMHWVRQAPGKGLEWVAVISYDGRNEDHVDSVKGRFTISRDNSKNTLYLQMNSLRAEDTAVYYCAKGSGSYYFDYWGQGTLVTVSS
VL: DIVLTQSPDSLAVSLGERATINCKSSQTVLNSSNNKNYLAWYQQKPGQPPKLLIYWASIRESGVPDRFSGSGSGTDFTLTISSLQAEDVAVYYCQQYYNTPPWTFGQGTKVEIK
notes: Human variable region, rat IgG2b Fc; from hybridoma

- Kd [5]: 3.1 nM
- Kd (human SIRPβ1-His monomer): 7500 nM
- Kd (human SIRPγ-His monomer): 103 nM
- Kd [1]: 4.57 nM
- Kd [3]: 513 nM
- EC50 (read off the curve) (Human SIRPγ CHO): ~0.2 µg/mL
- EC50 (read off the curve) (Cynomolgus Monkey SIRPγ): ~0.1 µg/mL
- EC50 (read off the curve) (Human SIRPβ1): ~0.06 µg/mL
- EC50 (read off the curve) (Human SIRPγ [6]): ~0.06 µg/mL
- EC50 (read off the curve) [7]: ~0.1 µg/mL
- SIRPγ-CD47 Response (%) [8]: -7.23%
B4: Antibody 3 (antibody, V domains shown)
VH: QVQLQESGPGLVKPSGTLSLTCAVSGGSISSSNWWSWVRQPPGKGLEWIGEIYHSGNTNYNPSLKSRVTISVDKSKNQFSLKLSSVTAADTAVYYCAREGIEGYYFYYGMDVWGQGTTVTVSS
VL: DIQLTQSPSFLSASVGDRVTITCRASQGISGYLDWYQQKPGKAPKLLIYAASTLQRGVPSRFSGSGSGTDFNLTISSLQPEDFATYYCQQFTSDLITFGQGTRLEIK
notes: as for B3

- Kd [1]: 2.89 nM
- Kd [2]: 22.6 nM
- Kd [3]: 15 nM
- EC50 (read off the curve) (Human SIRPγ [4]): ~0.02 µg/mL
- SIRPγ-CD47 Response (%) [8]: -37.9%
B5: Antibody 24 (antibody, V domains shown)
VH: B4 VH
VL: B4 VL
notes: Variable regions of Antibody 3

More lines, now with the values behind:

B1: Antibody 23 (antibody, V domains shown)
VH: QVQLQESGPGLVKPSGTLSLTCAVSGGSISSSNWWSWVRQPPGKGLEWIGEIYHSGSTNYNPSLKSRVTISVDKSKNQFSLKLSSVTAADTAVYYCARRGIWFGVGPWGQGTLVTVSS
VL: DIVMTQSPLSLPVTPGEPASISCRSSQSLLHGNGFNYLDWYLQKPGQSPQLLIYLGSNRASGVPDRFTGSGSGTDFTLKISRVEAEDVGVYYCMQGLQTPRTFGQGTKVEIK
notes: Variable regions of Antibody 1
- Kd [1]: 323 nM
- Kd [2]: 374 nM
- Kd [3]: 384 nM
- EC50 (read off the curve) (Human SIRPγ [4]): ~0.04 µg/mL

B2: Antibody 8 (antibody, V domains shown)
VH: QVQLQQWGAGLLKPSETLSLTCAVYGGSFSGYYWSWIRQPPGKGLEWIGEINHSGSTNFNPSLKSRVTISVDTSKNQFSLKLRSVTAADTAVYYCSRVDSGSYPYYDGLDVWGQGTTVTVSS
VL: SSELTQPPSVSVSPGQTASITCSGDKLGDKYVYWYQQKPGQSPVLVIYHDDRRPAGIPERFAGSASGNTATLTISGTQAMDEADYYCQTWDSSTVVFGGGTKLTVL
notes: as for B3
- Kd [5]: 46.6 nM
- Kd (human SIRPβ1-His monomer): 78.9 nM
- Kd (human SIRPγ-His monomer): 50 nM
- binding result (Human SIRPβ1/DAP12 CHO): binds
- binding result (Human SIRPγ CHO): binds
- EC50 (read off the curve) (Cynomolgus Monkey SIRPγ): ~0.03 µg/mL
- EC50 (read off the curve) (Human SIRPβ1): ~0.02 µg/mL
- EC50 (read off the curve) (Human SIRPγ [6]): ~0.02 µg/mL
- EC50 (read off the curve) [7]: ~0.03 µg/mL
- SIRPγ-CD47 Response (%) [8]: -4.94%

B6: Antibody 9 (antibody, V domains shown)
VH: QVQLQQWGAGLLKPSETLSLTCAVYGGSFSTYYWNWIRQPPGKGLEWIGEINHSGSTNYNPSLKSRVIISVDTSKNQFSLKLSSVTAADTAVYYCASSHYGSGSFPDSYGMDVWGQGTTVTVSA
VL: SYELTQSPSVSVSPGQTASITCSGDKLGDRYAWWYQQKPGQSPVLVIYQDDKRPSGIPERFSGSNSGNTATLTISGTQAMDEADYYCQAWDSSTAVFGGGTKLTVL
notes: as for B3
- Kd [5]: 1.24 nM
- binding result (Human SIRPγ CHO): binds
- binding result (Human SIRPγ [6]): binds

B7: Antibody 10 (antibody, V domains shown)
VH: EVQLLESGGGLVQPGGSLRLSCAASGFTFSSYAMSWVRQAPGKGLEWVSAISGSGGDTYYADSVKGRFTISRDNSKSTLYLQMNSLRAEDTAVYYCAKDGGSYYPPFDYWGQGTLVTVSS
VL: B6 VL with S7P, W33C, D51T, W90C
notes: as for B3
- Kd [5]: 57.6 nM
- Kd (human SIRPγ-His monomer): 1.37 nM
- binding result (Human SIRPγ CHO): binds
- binding result (Human SIRPγ [6]): binds
- SIRPγ-CD47 Response (%) [8]: -4.29%
